Common to all, as to assay: cell-based or functional assay
The target in experiment [1] is T1, human sortilin stably expressed on HEK 293 cells (HEK-SORT1 cells) (human, UniProt Q99523 78-831).
T1 sequence (looked up): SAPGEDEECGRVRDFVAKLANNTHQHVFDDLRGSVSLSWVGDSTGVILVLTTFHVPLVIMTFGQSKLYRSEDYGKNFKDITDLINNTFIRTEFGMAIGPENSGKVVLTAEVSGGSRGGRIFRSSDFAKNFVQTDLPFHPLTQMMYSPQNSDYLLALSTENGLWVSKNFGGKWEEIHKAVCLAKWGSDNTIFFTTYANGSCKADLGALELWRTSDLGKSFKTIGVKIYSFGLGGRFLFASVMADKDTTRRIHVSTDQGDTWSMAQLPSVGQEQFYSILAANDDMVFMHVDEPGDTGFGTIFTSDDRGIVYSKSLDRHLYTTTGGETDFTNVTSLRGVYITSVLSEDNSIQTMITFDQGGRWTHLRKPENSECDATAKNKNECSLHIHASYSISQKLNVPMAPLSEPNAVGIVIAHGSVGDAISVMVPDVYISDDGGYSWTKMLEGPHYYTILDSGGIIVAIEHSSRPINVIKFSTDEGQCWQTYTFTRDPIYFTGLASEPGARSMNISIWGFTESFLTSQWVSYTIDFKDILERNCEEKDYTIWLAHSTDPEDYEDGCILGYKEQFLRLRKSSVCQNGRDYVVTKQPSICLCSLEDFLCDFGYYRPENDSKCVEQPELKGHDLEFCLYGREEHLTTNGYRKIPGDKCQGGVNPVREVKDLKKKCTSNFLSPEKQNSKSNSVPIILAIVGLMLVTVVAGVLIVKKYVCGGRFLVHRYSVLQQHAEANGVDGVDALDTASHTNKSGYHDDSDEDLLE

The target in experiment [2] is T1, human sortilin stably expressed on HEK …. The source holds these as a separate data set.
The target is the same in experiment [3]. The source holds these as a separate data set.
Experiment [4] has the same target. This is another data set of the same source.
Experiment [5] shares this target. The source holds these as a separate data set.

Read-outs that look alike come from different tables or passages of the source. Ends that are not written are not given here. * marks the point of attachment. Azidoacetyl = [N-]=[N+]=NCC(=O)*

B1: Compound No. 1252443, XPAPSGPSPGLYENKPRRPYIL peptide conjugated to 20-mer MOE oligonucleotide with 3'-Cy3 (peptide)
peptide: KPAPSGPSPGLYENKPRRPYIL
modifications: not fully specified (residue 1); also: X side chain clicked via BCN (triazole) and 6-aminohexanol linker to 5' end of oligonucleotide CCAGGCTGGTTATGACTCAG (MOE, 3'-Cy3)
Regarding B1, in experiment [1], the “Mean Fluorescence Intensity (MFI), uptake 37C-4C, at 7 nM” value (“Mean Fluorescence Intensity … at 7 nM” below) came to 53 MFI; the “Mean Fluorescence Intensity (MFI), uptake 37C-4C, at 22 nM” value (shortened to “Mean Fluorescence Intensity … at 22 nM”) came out at 130 MFI; the “Mean Fluorescence Intensity (MFI), uptake 37C-4C, at 76 nM” value (from here on “Mean Fluorescence Intensity … at 76 nM”) was found to be 413 MFI; the “Mean Fluorescence Intensity (MFI), uptake 37C-4C, at 260 nM” value (“Mean Fluorescence Intensity … at 260 nM” for short) worked out at 1230 MFI. In addition, in experiment [1], the “Mean Fluorescence Intensity (MFI), uptake 37C-4C, at 882 nM” value (from here on “Mean Fluorescence Intensity … at 882 nM”) was 2430 MFI and the “Mean Fluorescence Intensity (MFI), uptake 37C-4C, at 3000 nM” value (from here on “Mean Fluorescence Intensity … at 3000 nM”) came out at 3390 MFI.

B2: Compound No. 1270697, … peptide conjugated to 20-mer MOE oligonucleotide with 3'-Cy3 (peptide)
peptide: K(Azidoacetyl)LYENKPKKPYIL
modifications: not fully specified; printed as 2-azido-acetyl-KLYENKPKKPYIL; also: azide joined via triazolo-BCN carbamate/6-aminohexanol linker to 5' end of 20-mer MOE oligonucleotide CCAGGCTGGTTATGACTCAG (uniform MOE, phosphodiester, 3'-Cy3)
As for B2, in experiment [2], the “Mean Fluorescence Intensity (MFI), uptake 37C-4C, at 12 nM” value (shortened to “Mean Fluorescence Intensity … at 12 nM”) stood at 39 MFI; the “Mean Fluorescence Intensity (MFI), uptake 37C-4C, at 37 nM” value (shortened to “Mean Fluorescence Intensity … at 37 nM”) was 51 MFI; the “Mean Fluorescence Intensity (MFI), uptake 37C-4C, at 111 nM” value (shortened to “Mean Fluorescence Intensity … at 111 nM”) was found to be 86 MFI; the “Mean Fluorescence Intensity (MFI), uptake 37C-4C, at 333 nM” value (“Mean Fluorescence Intensity … at 333 nM” below) was determined as 185 MFI. For the same molecule, the “Mean Fluorescence Intensity (MFI), uptake 37C-4C, at 1000 nM” value (from here on “Mean Fluorescence Intensity … at 1000 nM”) in experiment [2] came to 474 MFI.

B3: Compound No. 1270698, XLYENKPKRPYIL peptide conjugated to 20-mer MOE oligonucleotide with 3'-Cy3 (peptide)
peptide: XLYENKPKRPYIL
modifications: not fully specified; X at position 1 is 2-azido-acetyl lysine, joined via triazolo-BCN carbamate / 6-aminohexanol linker to 5' end of … (SEQ ID NO 2, uniform MOE, phosphodiester, 3'-Cy3)
B3: in experiment [2], the “Mean Fluorescence Intensity … at 12 nM” value amounted to 35 MFI; the “Mean Fluorescence Intensity … at 37 nM” value is 48 MFI; the “Mean Fluorescence Intensity … at 111 nM” value is 78 MFI; the “Mean Fluorescence Intensity … at 333 nM” value worked out at 155 MFI. In addition, in experiment [2], the “Mean Fluorescence Intensity … at 1000 nM” value is 394 MFI.

B4: Compound No. 1252444, XAGSIKPPPAGSSPGLYENKPRRPYIL peptide conjugated to 20-mer MOE oligonucleotide with 3'-Cy3 (peptide)
peptide: KAGSIKPPPAGSSPGLYENKPRRPYIL
modifications: not fully specified (residue 1); also: X side chain clicked via BCN (triazole) and 6-aminohexanol linker to 5' end of oligonucleotide CCAGGCTGGTTATGACTCAG (MOE, 3'-Cy3)
In the case of B4, in experiment [1], the “Mean Fluorescence Intensity … at 7 nM” value was 90 MFI; the “Mean Fluorescence Intensity … at 22 nM” value stood at 208 MFI; the “Mean Fluorescence Intensity … at 76 nM” value amounted to 609 MFI; the “Mean Fluorescence Intensity … at 260 nM” value turned out to be 1530 MFI. In experiment [1], the “Mean Fluorescence Intensity … at 882 nM” value is 2510 MFI and the “Mean Fluorescence Intensity … at 3000 nM” value amounted to 3390 MFI.

B5: Compound No. 1252445, XAGMSGASAGLYENKPRRPYIL peptide conjugated to 20-mer MOE oligonucleotide with 3'-Cy3 (peptide)
peptide: KAGMSGASAGLYENKPRRPYIL
modifications: not fully specified (residue 1); also: X side chain clicked via BCN (triazole) and 6-aminohexanol linker to 5' end of oligonucleotide CCAGGCTGGTTATGACTCAG (MOE, 3'-Cy3)
In the case of B5, in experiment [1], the “Mean Fluorescence Intensity … at 7 nM” value was 55 MFI; the “Mean Fluorescence Intensity … at 22 nM” value was found to be 85 MFI; the “Mean Fluorescence Intensity … at 76 nM” value turned out to be 306 MFI; the “Mean Fluorescence Intensity … at 260 nM” value was found to be 868 MFI. Further, in experiment [1], the “Mean Fluorescence Intensity … at 882 nM” value amounted to 1950 MFI and the “Mean Fluorescence Intensity … at 3000 nM” value was 2880 MFI.

B6: 1162756 duplex (Compound No. 1162756 complexed to complementary MOE oligonucleotide …) (peptide)
peptide: KPPPAGSSPGLYENKPRRPYIL
modifications: not fully specified (residue 1); also: oligonucleotide hybridized to complementary MOE strand CTGAGTCATAACCAGCCTGG (duplex)
Consider B6, for which, in experiment [3], the “Mean Fluorescence Intensity … at 12 nM” value was found to be 41 MFI; the “Mean Fluorescence Intensity … at 37 nM” value is 52 MFI; the “Mean Fluorescence Intensity … at 111 nM” value was found to be 71 MFI; the “Mean Fluorescence Intensity … at 333 nM” value was 130 MFI. In addition, the “Mean Fluorescence Intensity … at 1000 nM” value in experiment [3] came out at 278 MFI.

B7: Compound No. 1215812, CPPPAGSSPGLYENKPRRPYIL peptide conjugated by a maleimide linker to 20-mer MOE oligonucleotide with 3'-Cy3 (peptide)
peptide: CPPPAGSSPGLYENKPRRPYIL
modifications: not fully specified
B7: in experiment [4], the “Mean Fluorescence Intensity … at 7 nM” value came to 47 MFI; the “Mean Fluorescence Intensity … at 22 nM” value was 69 MFI; the “Mean Fluorescence Intensity … at 76 nM” value worked out at 205 MFI; the “Mean Fluorescence Intensity … at 260 nM” value came out at 675 MFI. In experiment [4], the “Mean Fluorescence Intensity … at 882 nM” value was 1810 MFI and the “Mean Fluorescence Intensity … at 3000 nM” value worked out at 3140 MFI.

B8: Compound No. 1091165, [SO5P]-LYEN[azido-acetyl-K]PRRPYIL peptide conjugated to 20-mer MOE oligonucleotide with 3'-Cy3 (peptide)
peptide: LYENXPRRPYIL
modifications: not fully specified; position 1 is SO5P (5-oxoproline); internal lysine (LYEN-K) side chain azido-acetyl joined via triazolo-BCN carbamate / 6-aminohexanol linker to 5' end of … (SEQ ID NO 2, uniform MOE, phosphodiester, 3'-Cy3)
B8: in experiment [5], the “Mean Fluorescence Intensity … at 12 nM” value worked out at 45 MFI; the “Mean Fluorescence Intensity … at 37 nM” value amounted to 53 MFI; the “Mean Fluorescence Intensity … at 111 nM” value worked out at 60 MFI; the “Mean Fluorescence Intensity … at 333 nM” value is 73 MFI. In experiment [5], the “Mean Fluorescence Intensity … at 1000 nM” value is 97 MFI.

B9: Compound 17-AH-1492, Cy3-labeled extended neurotensin (eNT, …) (peptide)
peptide: KPPPAGSSPGLYENKPRRPYIL
modifications: not fully specified (residue 1); also: Cy3 label attached by BCN click to the azide
Consider B9, for which, in experiment [5], the “Mean Fluorescence Intensity … at 12 nM” value amounted to 167 MFI; the “Mean Fluorescence Intensity … at 37 nM” value was determined as 390 MFI; the “Mean Fluorescence Intensity … at 111 nM” value came out at 724 MFI; the “Mean Fluorescence Intensity … at 333 nM” value is 1030 MFI. Further, in experiment [5], the “Mean Fluorescence Intensity … at 1000 nM” value was determined as 1260 MFI. In experiment [1], the “Mean Fluorescence Intensity … at 7 nM” value was found to be 84 MFI; the “Mean Fluorescence Intensity … at 22 nM” value worked out at 266 MFI; the “Mean Fluorescence Intensity … at 76 nM” value was 593 MFI; the “Mean Fluorescence Intensity … at 260 nM” value is 869 MFI. For the same molecule, in experiment [1], the “Mean Fluorescence Intensity … at 882 nM” value is 1180 MFI and the “Mean Fluorescence Intensity … at 3000 nM” value came out at 1440 MFI. Also, in experiment [3], the “Mean Fluorescence Intensity … at 12 nM” value is 108 MFI; the “Mean Fluorescence Intensity … at 37 nM” value is 334 MFI; the “Mean Fluorescence Intensity … at 111 nM” value stood at 763 MFI; the “Mean Fluorescence Intensity … at 333 nM” value is 1100 MFI. Further, the “Mean Fluorescence Intensity … at 1000 nM” value in experiment [3] is 1360 MFI.

B10: Compound 17-AE-9199, Cy3-labeled [SO5P]LYEN[azido-acetyl-K]PRRPYIL peptide (peptide)
peptide: LYENXPRRPYIL
modifications: not fully specified; position 1 is SO5P (5-oxoproline); internal lysine (LYEN-K) carries the azido-acetyl group joined to Cy3-BCN reagent (Cy3 label)
For B10, in experiment [5], the “Mean Fluorescence Intensity … at 12 nM” value amounted to 174 MFI; the “Mean Fluorescence Intensity … at 37 nM” value is 378 MFI; the “Mean Fluorescence Intensity … at 111 nM” value came to 825 MFI; the “Mean Fluorescence Intensity … at 333 nM” value turned out to be 1090 MFI. In addition, the “Mean Fluorescence Intensity … at 1000 nM” value in experiment [5] was 1220 MFI.

B11: Compound No. 1270696, XLYENKPRKPYIL peptide conjugated to 20-mer MOE oligonucleotide with 3'-Cy3 (peptide)
peptide: KLYENKPRKPYIL
modifications: not fully specified (residue 1)
As to B11, in experiment [2], the “Mean Fluorescence Intensity … at 12 nM” value was determined as 43 MFI; the “Mean Fluorescence Intensity … at 37 nM” value was 61 MFI; the “Mean Fluorescence Intensity … at 111 nM” value was 138 MFI; the “Mean Fluorescence Intensity … at 333 nM” value amounted to 312 MFI. For the same molecule, the “Mean Fluorescence Intensity … at 1000 nM” value in experiment [2] was determined as 1100 MFI.

These data come from patent US20230338555A1 (IONIS PHARMACEUTICALS, published 2023).
